The text below walks through data of US20150050271A1 (published 2015).

One experiment addresses WT (1B). The experiment is described as follows: ELISA.
The target of a further experiment is WT (2A). Nature of the experiment: ELISA.
The next experiment has as its target WT (1A). Nature of the experiment: ELISA.
A further experiment concerns the target WT (3). Nature of the experiment: ELISA.
The next experiment addresses WT (2B). The experiment is described as follows: ELISA.
Experiment [1] addresses T1, MAD1 JCV VLPs (virus-like particles of JCV capsid protein VP1, MAD1 strain) (JC virus (JCV), MAD1, UniProt P03089 1-354). The experiment is described as follows: Biacore; Fab.
In experiment [2] the target is T1, MAD1 JCV VLPs (virus-like particles of …). The experiment is described as follows: ELISA.
Experiment [3] shares this target. The experiment is described as follows: Biacore; mAb.
Another experiment addresses Type 3 wt. The experiment is described as follows: Biacore; mAb; printed ≤.

T1 sequence (P03089 whole entry): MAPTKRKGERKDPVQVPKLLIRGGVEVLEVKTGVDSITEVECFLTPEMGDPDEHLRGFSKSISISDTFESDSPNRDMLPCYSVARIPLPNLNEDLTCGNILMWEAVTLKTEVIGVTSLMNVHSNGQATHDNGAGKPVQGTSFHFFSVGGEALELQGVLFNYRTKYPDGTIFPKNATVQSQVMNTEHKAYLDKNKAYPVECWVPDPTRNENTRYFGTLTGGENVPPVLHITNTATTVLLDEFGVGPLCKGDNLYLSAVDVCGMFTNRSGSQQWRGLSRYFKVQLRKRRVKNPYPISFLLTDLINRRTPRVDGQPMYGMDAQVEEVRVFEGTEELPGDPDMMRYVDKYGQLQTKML

B1: BIIB048 (antibody, V domains shown)
VH: QVQLVESGGGVVQPGRSLRLSCAASGFSFDRNYWIAWVRQAPGKGLEWVAVISAGGSGNTYYATWAKGRFTISRDNSKNTLYLQMNSLRAEDTAVYYCARFYSGGGYYAGYFTLWGQGTLVTVSS
VL: AIQLTQSPSSLSASVGDRVTITCQASQSIGNNLAWYQQKPGKAPKLLIYLASYLASGVPSRFSGSGSGTDFTLTISSLQPEDFATYYCQSSYYSPNDNAFGQGTKVEIK
With B1, the EC50 in the experiment with WT (1B), with WT (2A), with WT (1A), with WT (3) and in the experiment with WT (2B) was less than 0.1 nM each time.

B2: V50A/N31A Fab (antibody, V domains shown)
VH: QVQLVESGGGVVQPGRSLRLSCAASGFSFDRNYWIAWVRQAPGKGLEWVAAISAGGSGNTYYATWAKGRFTISRDNSKNTLYLQMNSLRAEDTAVYYCARFYSGGGYYAGYFTLWGQGTLVTVSS
VL: AFQLTQSPSSLSASVGDRVTINCQASQSIGANLAWYQQKPGKAPKLLIYLASYLASGVPSRFSGSGSGTQFTLTVSSLQPEDFATYYCQSSYYSPNDNAFGQGTKVEIK
As to B2, the Kd in [1] was found to be 8.9 nM.

B3: humanized R399 H0L0 (antibody, V domains shown)
VH: QVQLVESGGGVVQPGRSLRLSCAASGFSFDRNYWIAWVRQAPGKGLEWVAVISAGGSGNTYYATWAKGRFTISRDNSKNTLYLQMNSLRAEDTAVYYCARFYSGGGYYAGYFTLWGQGTLVTVSS
VL: AIQLTQSPSSLSASVGDRVTITCQASQSIGNNLAWYQQKPGKAPKLLIYLASYLASGVPSRFSGSGSGTDFTLTISSLQPEDFATYYCQSSYYSPNDNAFGQGTKVEIK
B3 registered an EC50 in [2] of less than 0.1 nM.

B4: antibody 50/31-A (heavy chain H0 V50A, light chain L2 N31A) (antibody, V domains shown)
VH: QVQLVESGGGVVQPGRSLRLSCAASGFSFDRNYWIAWVRQAPGKGLEWVAAISAGGSGNTYYATWAKGRFTISRDNSKNTLYLQMNSLRAEDTAVYYCARFYSGGGYYAGYFTLWGQGTLVTVSS
VL: AFQLTQSPSSLSASVGDRVTINCQASQSIGANLAWYQQKPGKAPKLLIYLASYLASGVPSRFSGSGSGTQFTLTVSSLQPEDFATYYCQSSYYSPNDNAFGQGTKVEIK
In experiment [3], B4 came in with an equilibrium dissociation constant (Kd) of 0.9 nM.

B5: 5031G (antibody, V domains shown)
VH: QVQLVESGGGVVQPGRSLRLSCAASGFSFDRNYWIAWVRQAPGKGLEWVAGISAGGSGNTYYATWAKGRFTISRDNSKNTLYLQMNSLRAEDTAVYYCARFYSGGGYYAGYFTLWGQGTLVTVSS
VL: AFQLTQSPSSLSASVGDRVTINCQASQSIGANLAWYQQKPGKAPKLLIYLASYLASGVPSRFSGSGSGTQFTLTVSSLQPEDFATYYCQSSYYSPNDNAFGQGTKVEIK
Consider B5, for which the EC50 with WT (1B), with WT (2A), with WT (1A), in the experiment with WT (3) and with WT (2B) was less than 0.1 nM in each case.

B6: H0/L0 mAb (antibody, V domains shown)
VH: QVQLVESGGGVVQPGRSLRLSCAASGFSFDRNYWIAWVRQAPGKGLEWVAVISAGGSGNTYYATWAKGRFTISRDNSKNTLYLQMNSLRAEDTAVYYCARFYSGGGYYAGYFTLWGQGTLVTVSS
VL: AIQLTQSPSSLSASVGDRVTITCQASQSIGNNLAWYQQKPGKAPKLLIYLASYLASGVPSRFSGSGSGTDFTLTISSLQPEDFATYYCQSSYYSPNDNAFGQGTKVEIK
The molecule B6 displayed a Kd with Type 3 wt of less than 0.01 nM.

B7: antibody 50/31-G (heavy chain H0 V50G, light chain L2-N31A, as told in paragraph 169) (antibody, V domains shown)
VH: QVQLVESGGGVVQPGRSLRLSCAASGFSFDRNYWIAWVRQAPGKGLEWVAGISAGGSGNTYYATWAKGRFTISRDNSKNTLYLQMNSLRAEDTAVYYCARFYSGGGYYAGYFTLWGQGTLVTVSS
VL: AFQLTQSPSSLSASVGDRVTINCQASQSIGANLAWYQQKPGKAPKLLIYLASYLASGVPSRFSGSGSGTQFTLTVSSLQPEDFATYYCQSSYYSPNDNAFGQGTKVEIK
The molecule B7 showed an EC50 in experiment [2] of less than 0.1 nM.

B8: H0/L0 Fab (antibody, V domains shown)
VH: QVQLVESGGGVVQPGRSLRLSCAASGFSFDRNYWIAWVRQAPGKGLEWVAVISAGGSGNTYYATWAKGRFTISRDNSKNTLYLQMNSLRAEDTAVYYCARFYSGGGYYAGYFTLWGQGTLVTVSS
VL: AIQLTQSPSSLSASVGDRVTITCQASQSIGNNLAWYQQKPGKAPKLLIYLASYLASGVPSRFSGSGSGTDFTLTISSLQPEDFATYYCQSSYYSPNDNAFGQGTKVEIK
The molecule B8 yielded an equilibrium dissociation constant (Kd) in experiment [1] of 50 nM.
